Where a chain is given by its changes, count along the chain named.

Here are results for five molecules from US20260146107A1 (ALLIGATOR BIOSCIENCE, published 2026).

To fix the notation:
B1: AC_05064 (antibody, human IgG1, kappa, V domains shown)
VH: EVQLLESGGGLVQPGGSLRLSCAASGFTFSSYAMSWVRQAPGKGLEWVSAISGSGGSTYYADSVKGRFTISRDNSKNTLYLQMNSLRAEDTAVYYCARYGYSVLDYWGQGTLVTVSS
VL: DIQMTQSPSSLSASVGDRVTITCRASQSISSYLNWYQQKPGKAPKLLIYAASSLQSGVPSRFSGSGSGTDFTLTISSLQPEDFATYYCQQYPWYFPYTFGQGTKLEIKR
B2: AC_05060 (antibody, human IgG1, kappa, V domains shown)
VH: EVQLLESGGGLVQPGGSLRLSCAASGFTFGSYYMSWVRQAPGKGLEWVSGISGYGYYTGYADSVKGRFTISRDNSKNTLYLQMNSLRAEDTAVYYCARHGYGVIDYWGQGTLVTVSS
VL: DIQMTQSPSSLSASVGDRVTITCRASQSIRDYLNWYQQKPGKAPKLLIYAASSLQSGVPSRFSGSGSGTDFTLTISSLQPEDFATYYCQQGTFPFTFGQGTKLEIKR
B3: AC_05061 (antibody, human IgG1, kappa, V domains shown)
VH: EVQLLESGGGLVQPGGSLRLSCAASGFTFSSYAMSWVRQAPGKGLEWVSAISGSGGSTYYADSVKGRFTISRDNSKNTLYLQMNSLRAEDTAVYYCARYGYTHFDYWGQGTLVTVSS
VL: DIQMTQSPSSLSASVGDRVTITCRASQSISSYLNWYQQKPGKAPKLLIYAASSLQSGVPSRFSGSGSGTDFTLTISSLQPEDFATYYCQQGAYVPYTFGQGTKLEIKR
B4: AC_05062 (antibody, human IgG1, kappa, V domains shown)
VH: not shown
VL: B3 VL with S28A, S31G, A50S, G91S, A92Y, Y93S, V94T
B5: Multi39 (bispecific antibody)
heavy 1: not shown
light: not shown
heavy 2: EVQLLESGGGLVQPGGSLRLSCAASGFTFYDHAMSWVREAPGKGLEWVSAISGSYGSTGYADSVKGRFTISRDNSKNTLYLQMNSLRAEDTAVYYCARWGGWAGDIDYWGQGTLVTVSSASTKGPSVFPLAPSSKSTSGGTAALGCLVKDYFPEPVTVSWNSGALTSGVHTFPAVLQSSGLYSLTSVVEVPSSSLGTQTYICNVNHKPSNTKVDKKVEPKSC
notes: Optimised RUBY format, CD40xCEACAM5; copies: 2 + 2 + 2

The target in the first assay is T1, human CEACAM1 expressed on CHO cells (human, UniProt P13688 35-526).
T1 construct: whole, on cells; also called CHO-CEACAM1; CEACAM1 on cells
T1 sequence (looked up): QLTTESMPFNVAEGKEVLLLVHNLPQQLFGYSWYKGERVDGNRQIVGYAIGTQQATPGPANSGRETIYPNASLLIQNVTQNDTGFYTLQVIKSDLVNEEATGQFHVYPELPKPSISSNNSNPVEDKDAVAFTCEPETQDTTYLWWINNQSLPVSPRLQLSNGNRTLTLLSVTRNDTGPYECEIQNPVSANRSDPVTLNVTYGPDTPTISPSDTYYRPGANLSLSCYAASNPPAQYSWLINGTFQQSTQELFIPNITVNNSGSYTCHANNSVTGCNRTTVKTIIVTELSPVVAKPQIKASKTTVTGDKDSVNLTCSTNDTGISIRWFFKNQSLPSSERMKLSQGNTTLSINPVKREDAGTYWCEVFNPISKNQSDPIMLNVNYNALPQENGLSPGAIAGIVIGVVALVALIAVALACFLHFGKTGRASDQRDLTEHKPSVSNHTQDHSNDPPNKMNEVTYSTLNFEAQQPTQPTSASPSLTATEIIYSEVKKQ
Briefly: flow cytometry, transfected CHO cells, IgG1. The source says:
Binding of the antibodies was detected using fluorochrome-conjugated anti-human IgG and analysed using flow cytometry.
For orientation: A flow cytometer gives signals particle by particle.
For B1, the binding result is “no binding (tested: 0.5 and 5 µg/ml)”.

For the molecule B2, the binding result is “no binding (tested: 0.5 and 5 µg/ml)”.

For B3, the binding result is “no binding (tested: 0.5 and 5 µg/ml)”.

Regarding B4, the binding result was “no binding (tested: 0.5 and 5 µg/ml)”.

The next assay addresses T2, human CEACAM1, recombinant (R&D Systems #2244-CM-050) (human, UniProt P13688 35-428).
T2 construct: also called hCEACAM-1
T2 sequence (looked up): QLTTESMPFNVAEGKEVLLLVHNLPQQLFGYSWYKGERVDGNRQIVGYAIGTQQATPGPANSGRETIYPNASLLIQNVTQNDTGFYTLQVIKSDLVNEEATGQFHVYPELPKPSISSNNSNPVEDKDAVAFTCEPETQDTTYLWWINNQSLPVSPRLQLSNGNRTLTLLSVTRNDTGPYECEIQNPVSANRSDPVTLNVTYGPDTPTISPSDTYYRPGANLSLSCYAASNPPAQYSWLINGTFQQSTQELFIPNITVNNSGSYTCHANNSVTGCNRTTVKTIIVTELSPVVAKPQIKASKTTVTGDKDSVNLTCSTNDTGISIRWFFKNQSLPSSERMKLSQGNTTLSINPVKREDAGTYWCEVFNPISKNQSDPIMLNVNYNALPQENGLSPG
Briefly: ELISA, cross-reactivity to other CEA family members. On the procedure:
(§1) 96-well plates were coated with 0.5 μg/mL antigen, hCEACAM-5 (4128-CM-050, R&D Systems), hCEACAM-1 (2244-CM-050, R&D Systems), hCEACAM-6(3934-CM-050, R&D Systems) or CEACAM-8 (9639-CM-050, R&D Systems) in PBS over night at 4° C. After washing with PBS/0.05% Tween 20 (PBST), the plates were blocked with PBST, 2% BSA for at least 30 minutes at room temperature before a second round of washing. […] After washing, plates were incubated with 50 μl detection antibody (0.5 μg/ml HRP conjugated goat anti human-kappa light chain, #STAR127P, AbD Serotec). Finally, a final round of washing was performed and bound complexes detected using SuperSignal Pico Luminescent as substrate and luminescence signals were measured using Fluostar Optima.
In general terms: In an ELISA, binding on a coated surface is turned into a signal by an enzyme label.
In the case of B1, the binding result was “no binding (tested: 0.4 µg/ml)”.

Consider B2, for which the binding result is “no binding (tested: 0.4 µg/ml)”.

Take B3: the binding result is reported as “no binding (tested: 0.4 µg/ml)”.

For the molecule B4, the binding result is reported as “no binding (tested: 0.4 µg/ml)”.

The next assay deals with T3, human CEACAM6, recombinant (R&D Systems #3934-CM-050) (human, UniProt P40199 35-320).
T3 construct: also called hCEACAM-6
T3 sequence (looked up): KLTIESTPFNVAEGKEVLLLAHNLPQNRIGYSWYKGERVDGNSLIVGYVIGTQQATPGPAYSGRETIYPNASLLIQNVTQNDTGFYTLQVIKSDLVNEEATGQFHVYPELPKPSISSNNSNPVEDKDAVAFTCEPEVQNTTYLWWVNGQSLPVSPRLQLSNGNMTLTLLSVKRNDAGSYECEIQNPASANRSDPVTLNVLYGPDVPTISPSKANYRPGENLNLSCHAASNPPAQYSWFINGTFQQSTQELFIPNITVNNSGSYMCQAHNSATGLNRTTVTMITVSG
Described as above. On the procedure:
as §1
As to B1, the binding result was “no binding (tested: 0.4 µg/ml)”.

Regarding B2, the binding result is reported as “no binding (tested: 0.4 µg/ml)”.

For the molecule B3, the binding result is on record as “no binding (tested: 0.4 µg/ml)”.

B4: the binding result is “no binding (tested: 0.4 µg/ml)”.

A further assay has as its target T4, CEACAM-8, recombinant (R&D Systems #9639-CM-050) (UniProt P31997 35-320).
T4 sequence (looked up): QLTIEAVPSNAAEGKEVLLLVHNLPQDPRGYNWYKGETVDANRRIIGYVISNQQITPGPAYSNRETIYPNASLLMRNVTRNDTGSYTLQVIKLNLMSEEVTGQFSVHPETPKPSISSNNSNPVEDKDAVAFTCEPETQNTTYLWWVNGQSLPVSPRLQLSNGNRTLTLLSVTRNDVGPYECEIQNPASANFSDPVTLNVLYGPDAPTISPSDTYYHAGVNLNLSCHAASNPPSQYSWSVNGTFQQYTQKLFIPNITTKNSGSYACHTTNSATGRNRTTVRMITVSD
The description is as above. As to the method:
as §1
With B1, the binding result is given as “no binding (tested: 0.4 µg/ml)”.

Turning to B2, the binding result was “no binding (tested: 0.4 µg/ml)”.

For B3, the binding result is on record as “no binding (tested: 0.4 µg/ml)”.

Regarding B4, the binding result is recorded as “no binding (tested: 0.4 µg/ml)”.

The target of another assay is T5, human CEACAM5, recombinant (R&D Systems #4128-CM-050) (human, UniProt P06731 35-685).
T5 construct: Bought; coated in ELISA and used as monomeric analyte in Octet; also called hCEACAM-5; Human CEACAM5-His; not shown: His tag
T5 sequence (looked up): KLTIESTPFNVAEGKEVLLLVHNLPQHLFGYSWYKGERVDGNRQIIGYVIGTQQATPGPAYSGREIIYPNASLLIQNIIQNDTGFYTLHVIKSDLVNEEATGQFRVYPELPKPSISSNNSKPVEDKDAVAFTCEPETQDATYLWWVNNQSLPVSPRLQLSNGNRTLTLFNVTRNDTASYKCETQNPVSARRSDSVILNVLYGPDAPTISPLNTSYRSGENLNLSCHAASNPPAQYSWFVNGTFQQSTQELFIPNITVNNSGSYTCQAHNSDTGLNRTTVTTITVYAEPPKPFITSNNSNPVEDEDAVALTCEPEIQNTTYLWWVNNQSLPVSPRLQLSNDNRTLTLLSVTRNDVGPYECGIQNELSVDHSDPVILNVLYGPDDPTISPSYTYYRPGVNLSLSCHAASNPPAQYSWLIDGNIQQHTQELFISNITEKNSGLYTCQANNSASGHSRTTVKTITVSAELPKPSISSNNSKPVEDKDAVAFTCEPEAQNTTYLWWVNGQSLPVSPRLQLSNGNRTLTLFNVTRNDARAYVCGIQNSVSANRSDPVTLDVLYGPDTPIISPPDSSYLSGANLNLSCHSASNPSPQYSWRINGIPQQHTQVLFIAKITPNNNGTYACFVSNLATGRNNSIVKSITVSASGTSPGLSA
Nature of the assay: Octet BLI, IgG1 captured on AHC tips, CEACAM5-His in solution, 1:1 fit. On the procedure: Kinetic measurements were performed in the Octet RED96 platform using several different setups. Monoclonal antibodies (listed in Table 9), serially diluted ½ starting at 100 nM, were captured to anti human IgG Fc Capture (AHC) Biosensor tips (Sartorius #18-5060). Human CEACAM5-His (R&D Systems #4128-CM-050) diluted in 1× kinetic buffer (Sartorius) at 100 nM was then added. Binding kinetics was studied in 1× kinetic buffer where association was allowed for 300 sec followed by dissociation for 600 sec. Sensor tips were regenerated with 10 mM Glycine pH 1.7. Data generated were referenced by subtracting blank or parallel buffer blank, the baseline was aligned to the y-axis, inter-step correction by alignment against dissociation was performed and the data was smoothed by Savitzky-Golay filter in the data analysis software (v9.0.0.14). The processed data was fitted using a 1:1 Langmuir binding model with R² or X² as a measurement of fitting accuracy.
B1: the Kd (in general, the equilibrium constant for the complex coming apart) came out at 0.4 nM; the koff (as a rule, the first-order rate constant of dissociation) was 6e-05 s⁻¹; the association rate constant (kon) – broadly, the rate constant with which the complex forms – was determined as 100000 M⁻¹ s⁻¹.

For the molecule B2, the Kd stood at 6 nM, the off-rate (koff) came out at 0.002 s⁻¹ and the association rate constant (kon) amounted to 400000 M⁻¹ s⁻¹.

For the molecule B3, the Kd worked out at 20 nM, the koff is 0.002 s⁻¹ and the on-rate constant (kon) is 100000 M⁻¹ s⁻¹.

Consider B4, for which the dissociation constant Kd was determined as 0.9 nM, the koff is 0.002 s⁻¹ and the on-rate constant (kon) was found to be 2e+06 M⁻¹ s⁻¹.

For another assay, the target named is T5, human CEACAM5, recombinant (R&D Systems …). Briefly: ELISA, antigen coated at 0.5 µg/mL, bsAb titrated, anti-human kappa-HRP, luminescence. As to the method: (§2) 96-well plates were coated with 0.5 μg/mL antigen, hCEACAM-1 (2244-CM-050, R&D Systems), hCEACAM-5 (4128-CM-050, R&D Systems), hCEACAM-6 (3934-CM-050, R&D Systems) or CEACAM-8 (9639-CM-050, R&D Systems) in PBS over night at 4° C. After washing in PBS/0.05% Tween 20 (PBST), the plates were blocked with PBST, 2% BSA for at least 30 minutes at room temperature before a second round of washing. RUBY bsAbs, diluted in PBST, 0.5% BSA, were then added and allowed to bind for at least 1 hour at room temperature. […] Finally, a final round of washing was performed and bound complexes detected using SuperSignal Pico Luminescent as substrate and luminescence signals were measured using Fluostar Optima.
Regarding B5, the EC50 (read off the curve) (commonly the concentration at which the effect is half-maximal) is approximately 1 nM.

The target is the same in another assay. Briefly: dual-target ELISA: hCEACAM-5 coated, bsAb titrated, detected with biotinylated hCD40-muIg and streptavidin-HRP, luminescence; signal needs both targets bound. On the procedure:
as §2
For B5, the “EC50 (read off the curve)” value was approximately 3 nM.

The target of another assay is T6, biotinylated human CD40-mouse Fc (Ancell #504-030) (human, UniProt P25942 21-193, biotinylated (site not stated)).
T6 construct: Bought; also called hCD40-muIg; CD40mFc-biotin; not shown: mouse Ig Fc
T6 sequence (P25942 21-193): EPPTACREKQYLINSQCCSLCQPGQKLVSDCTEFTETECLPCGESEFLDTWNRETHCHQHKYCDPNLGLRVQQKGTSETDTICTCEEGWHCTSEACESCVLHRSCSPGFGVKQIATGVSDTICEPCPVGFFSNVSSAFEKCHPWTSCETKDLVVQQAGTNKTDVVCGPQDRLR
The assay is described as above. As to the method: as §2
Take B5: the binding result was “binds”.
